Experimental findings from patent publication US10975142B2, “Endotrophin neutralization and use thereof” (THE BOARD OF REGENTS OF THE UNIVERSITY OF TEXAS SYSTEM, priority 2013, dated 2021) are described below.

In data set [1] the target is T1, native form of endotrophin protein (Mus musculus, UniProt E9PWQ3).
T1 construct: made in house; purified from conditioned media by gel filtration
T1 sequence (E9PWQ3 with tags, fused parts or gaps): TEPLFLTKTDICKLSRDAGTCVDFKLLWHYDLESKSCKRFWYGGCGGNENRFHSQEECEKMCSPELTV
Briefly: capture of IRD-800 labeled native endotrophin by monoclonal antibodies (Protein G Sepharose pull-down). Type of data set: binding. The note with it: 2 hours at room temperature, rat-IgG as control. From the text:
FIGS. 9A-9C. Generation of endotrophin-specific antibodies. FIG. 9A. HEK-293 cell produced mouse endotrophin was subjected to Western blotting using rabbit anti-mouse endotrophin polyclonal antibody. FIG. 9B. Bacterially produced GST-fused recombinant human endotrophin protein was subjected to western blotting using a rabbit anti-human endotrophin polyclonal antibody. GST protein was used as a negative control. The arrow points at endotrophin. FIG. 9C. […] IRD (infrared dye)-800 labeled native form of endotrophin protein was incubated with either endotrophin monoclonal antibodies, including 4D1, 4F8, 10B6-A11, 10B6-B5, and 10B6-C3 or a rat-IgG for 2 hours at room temperature and subsequently incubated with Protein G Sepharose for 1 hour. The protein-Sepharose complex was separated on a 10-20% Tricine gel after 3 times washing with PBS. Captured endotrophin protein was visualized on a Licor Odyssey Infrared Scanner (Licor Bioscience). Green color represents the IRD800 channel.

Data set [2] deals with Met-1 cells. Briefly: allografts of Met-1 cells with ETP or PBS and 1D11 or IgG in a Matrigel plug. The following applies: ETP 20 ng/plug vs PBS. Type of data set: in vivo, mouse. The procedure: FIGS. 6A-6H: ETP augments metastasis through enforcing TGF-β-dependent EMT. (FIG. 6A) E-cadherin immunostaining for tumor tissues from PyMT and PyMT/ETP. (FIG. 6B and FIG. 6C) SBE-luciferase reporter assay. See Supplemental Methods for details. Data represent fold increase (3 independent experiments). **P<0.01, *P<0.05, 2-way ANOVA. pRA-ctrl, empty; pRA-sETP, secretion form; pRA-ETP, intracellular form. (FIGS. 6D-6G) Allografts of Met-1 cells in the presence of either ETP (20 ng/plug) or PBS mixed with 1D11 or IgG (10 μg/plug) within a Matrigel plug. 10 days after implantation, additional 1D11 or IgG (100 μg) was i.p. injected once a week during tumor progression. (FIG. 6D) Tumor volumes represent means±SEM (n=5 per group). *P<0.05, 2-way ANOVA. (FIG. 6E) H&E staining. The ratio of stromal area in tumor tissues was quantified. Data represent mean±SEM (n=5 per group). *P<0.05, unpaired t test. T; tumor and S; stroma. (FIG. 6F) Fibrosis was determined by Masson's Trichrome C stain. Data represent mean±SEM (n=5 per group). **P<0.01, ***P<0.001, unpaired t test. (FIG. 6G) Western blotting for EMT markers E-cadherin, vimentin, and α-SMA. β-actin, loading control. Data represent fold increase (n=5 per group). *P<0.05, **P<0.01, ***P<0.001, unpaired t test. […] 20 days post injection, metastasized cancer cells in the lung tissues were determined by fluorescence intensity. […]

Another data set has as its target T2, ETP (Mus musculus, UniProt E9PWQ3).
T2 sequence (E9PWQ3 with tags, fused parts or gaps limits assumed): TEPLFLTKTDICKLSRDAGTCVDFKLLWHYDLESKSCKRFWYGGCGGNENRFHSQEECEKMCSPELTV
Briefly: in vivo Matrigel bioassay (stromal cell recruitment into plugs). The note with it: recombinant ETP 100 ng/plug vs PBS, mammary fat pads of WT mice. The procedure: (§1) FIGS. 7A-7I: ETP acts as a chemokine augmenting tumor growth. […] Tumor volume was determined 1 month after implantation (representative images). Data represent mean±SEM (n=5 per group). ***P<0.001, unpaired t test. (FIG. 7B) In vivo Matrigel bioassay. Matrigel (50 μl) was mixed with ETP (100 ng/plug) or PBS and implanted into WT mice in the presence of IgG, 1D11, or 10B6 (20 μg/plug). 2 days after implantation, plugs were excised and stained for FIG. 7H & FIG. 7E. Scale bars: 100 μm. (FIGS. 7C-7H) Cancer cells were plated in the bottom chamber 1 day prior to seeding MS-1 cells (5×10^5 cells/well) and macrophages (1×10^5 cells/well) atop the membrane chamber in Transwell and incubated for 18-24 hours (FIG. 7C). (FIGS. 7D, 7E, 7F, 7G) Representative images of multiple independent experiments. Scale bars: 100 μm. (FIG. 7H) Quantitation (mean±SEM; n=3 per group). ***P<0.001, […], unpaired t test. (FIG. 7I) MS-1 migration assay. MS-1 cells (5×10^5 cells/well) were plated atop the chamber in Transwell and incubated for 24 hours. Chemotaxis was set up by following cell migration from DMEM/serum-free to DMEM/2% FBS/PBS or DMEM/2% FBS/ETP protein (1 μg/well). Images are representative of multiple independent experiments. Data represent mean±SEM (n=3 per group). ***P=0.008, unpaired t test. Scale bars: 100 μm.

The next data set has as its system MS-1 cells. The data set can be described thus: MS-1 migration assay (Transwell). The data set is classed as cell-based, mouse. The following applies: ETP protein 1 μg/well, 24 hours. The method, then: as §1, with “Chemotaxis was set up by following cell migration from DMEM/serum-free to DMEM/2% FBS/PBS or DMEM/2% FBS/ETP protein (1 μg/well). Images are representative of multiple independent experiments. Data represent mean±SEM (n=3 per group). ***P=0.008, unpaired t test. Scale bars: 100 μm.” left out
Thioglycollate-elicited macrophages or MS-1 in serum-free media were loaded into the upper chamber of a Transwell plate (8 μm pore size; Costar). […] 18 hours later, cells on the underside of the membrane were fixed with 10% formalin, stained with hematoxylin, and counted. […]

For data set [3], the system named is Met-1 cells. The data set can be described thus: Mitotic Index Assay with endotrophin. Type of data set: cell-based, mouse. The following applies: Met-1, purified ETP, 24 hours. The procedure:
(§2) FIGS. 15A-15D. Endotrophin has a limited effect on tumor cell proliferation. FIG. 15A. […] An equal number of cancer cells were freshly isolated from tumor tissues of PyMT (ctrl-cancer cells) and PyMT/endotrophin (ETP^+-cancer cells) and implanted into WT mice (1×10^6 cells/mouse). Tumor volume was determined 1 month post-implantation. Quantitative results are represented as mean±SEM (n=7/group). p=n.s vs. Ctrl-cancer cells by unpaired t-test. FIG. 15B. Met-1 cells were seeded into the 96 well plates and incubated with DMEM/10% FBS/PBS, DMEM/10% FBS/endotrophin, or conditioned media acquired from HEK293 or HEK293/endotrophin-overexpressing cells for 24 hours. Mitotic activity was measured with a Mitotic Index Assay Kit (Active Motif) following the manufacturer's protocol. Paclitaxel (1 μM) was used as a positive control of mitosis. Quantified results are represented as mean±SEM (n=10/group) p=n.s vs. PBS or Ctrl-media by unpaired t-test. FIG. 15C. Human breast cancer cells, MCF7 (0.1×10^5) were plated in the 24 well plates with or without recombinant endotrophin protein and cell numbers were counted over time. The quantification of results is represented as mean±SEM (n=6/group, triplicate). p=n.s vs. PBS by unpaired t-test. FIG. 15D. […] Endomucin positive area was quantified and represented as mean±SEM (multiple images, n=4/group). ***p=0.0008 vs. ctrl by unpaired t-test. Scale bars: 200 μm.

A further data set deals with MCF7. Briefly: cell number counts with recombinant endotrophin protein. The data set is classed as cell-based, human. The following applies: MCF-7, purified ETP. The procedure:
as §2

Data set [4] can be described thus: analysis of ETP homing (IRD-800 labeled ETP, tail vein). The data set is classed as in vivo, mouse. The method, then:
FIGS. 2A-2D: ETP levels in human cancer specimens and its target tissues. (FIG. 2A and FIG. 2B) Human cancer tissues compared with those of benign tissues were immunostained with human ETP-specific polyclonal antibody. Human samples for breast cancer (FIG. 2A) and colon cancer (FIG. 2B) were analyzed. […] (FIG. 2C and FIG. 2D) Whole body in vivo imaging of injected ETP. IRD-800 fluorescence-labeled ETP protein (10 μg) was intravenously injected into WT, 8-week-old PyMT, and 10-week-old PyMT mice by tail vein. (FIG. 2C) ETP levels were visualized by the Licor Infrared Scanner 10-90 minutes after injection. Arrows indicate mammary tumors. L, liver; B, bladder; T, tumor. IgG was used as a negative control. (FIG. 2D) Tissues were excised 2 hours after injection, and ETP-positive fluorescence signals were determined with a Licor Infrared Scanner. Quantified values were normalized to total area and represented as percentage of WT. ***P<0.001.
The homing of ETP in circulation was determined by injecting fluorescently labeled ETP into tail veins. ETP and IgGs were labeled with IRDye800 CW NHS Ester (Licor Bioscience) at a 1:1 molar ratio (dye/protein), according to the manufacturer's instructions. Whole-body fluorescence images were collected on the Odyssey scanner (Licor Bioscience). […] Quantified values were normalized to the total area of each organ.

B1: 10B6-A11: rat anti-mouse endotrophin monoclonal antibody (antibody, V domains shown)
VH: QVQLQQSGPELAKPGSSVKISCKASGYTFTSYEMHWIKQRPGQGLEWIGYIYPESGSTGYNEKFKGKATLTVDKSSPTAYMQLSSLTPDNSAVYFCTRGLRVLGYVMDVWGHGTSVTVSS
VL: DVQLTQSPSFLSASVGDRVTINCKASQNINKYLNWYQQKLGEAPKRLIYNTNNLQTGIPSRFSGSASGTDYTLTISSLHPEDFATYFCLQHSSLYTFGAGTKLELK
Turning to B1, the “capture of the native form of endotrophin protein” value (“capture” for short) in data set [1] was “efficiently capture”.

B2: 10B6-B5: rat anti-mouse endotrophin monoclonal antibody (antibody, V domains shown)
VH: QVQLQQSGPELAKPGSSVKISCKASGYTFTSYEMHWIKQRPGQGLEWIGYIYPESGSTGYNEKFKGKATLTVDKSSPTAYMQLSSLTPDNSAVYFCTRGLRVLGYVMDVWGHGTSVTVSS
VL: DVQLTQSPSFLSASVGDRVTINCKASQNINKYLNWYQQKLGEAPKRLIYNTNNLQTGIPSRFSGSASGTDYTLTISSLHPEDFATYFCLQHSSLYTFGAGTKLELK
As for B2, the “capture” value in data set [1] is reported as “efficiently capture”.

B3: 10B6-C3: rat anti-mouse endotrophin monoclonal antibody (antibody, V domains shown)
VH: QVQLQQSGPELAKPGSSVKISCKASGYTFTSYEMHWIKQRPGQGLEWIGYIYPESGSTGYNEKFKGKATLTVDKSSPTAYMQLSSLTPDNSAVYFCTRGLRVLGYVMDVWGHGTSVTVSS
VL: DVQLTQSPSFLSASVGDRVTINCKASQNINKYLNWYQQKLGEAPKRLIYNTNNLQTGIPSRFSGSASGTDYTLTISSLHPEDFATYFCLQHSSLYTFGAGTKLELK
For the molecule B3, the “capture” value in data set [1] was “efficiently capture”.

B4: ETP: cleaved C5 fragment of the COL6α3 chain, used as recombinant or purified protein (protein)
chain: TEPLFLTKTDICKLSRDAGTCVDFKLLWHYDLESKSCKRFWYGGCGGNENRFHSQEECEKMCSPELTV
As to B4, the “tumor growth for Met-1 cells” value in the data set on Met-1 cells [2] was “significantly enhanced”. Also, the “stromal cells recruited into Matrigel plugs” value with ETP is reported as “significantly more stromal cells”. For the same molecule, the “MS-1 cells recruited (migration) vs controls” value with MS-1 cells was “twice as many”. Also, in the data set with Met-1 cells [3], the “cell proliferation (mitotic activity)” value was “not affected”. In addition, in the data set on MCF7, the “cell proliferation (cell numbers over time)” value is given as “not affected”. In addition, the “whole body in vivo distribution of labeled ETP” value in data set [4] (10 μg i.v., PyMT mice, compared with control-labeled IgGs) is “predominantly observed in tumor lesions”. Further, the “ETP fluorescence in excised tissues relative to mammary glands of WT mice” value in data set [4] (tissues excised 2 hours after injection) was “highly enriched in mammary tumor tissues”.
